Source: PMC7906288
Read-outs that look alike come from different tables or passages of the source.

Columns and labels:
Assay in all cases: native MS
[1] = target: SILu Lite SigmaMAb universal antibody standard human (MSQC4) (human)
[2] = target: SILu Lite SigmaMAb universal antibody standard human (MSQC4) (human); remark: listed apart in the source
[3] = target: SILu Lite SigmaMAb universal antibody standard human (MSQC4) (human); remark: listed apart in the source
[4] = target: NISTmAb, recombinant humanized monoclonal IgG1 antibody (not stated | human (humanized antibody))

| Substance | stoichiometry N [1] | stoichiometry N [2] | stoichiometry N [3] | stoichiometry N [4] |
| --- | --- | --- | --- | --- |
| SILu Lite SigmaMAb universal antibody standard human (MSQC4) | 2 | 2 | 2 |  |
| NISTmAb, recombinant humanized monoclonal IgG1 antibody |  |  |  | 2 |
